Laboratory results published in the supplement of paper PMC10567573.

B1: NET1 (parent)
chain: RVRPLARVTSLANLISPVRNGAVR

Variants of: B1
Assay: protein stability index of a GFP-peptide fusion (GPS, HEK-293T) (PSI 1-6); higher = more stable
Settings: c terminus: a fixed tail appended
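Further: lentivirally expressed fusions sorted by FACS into six bins by GFP to DsRed ratio, PSI derived from sequencing read proportions per bin multiplied by bin number.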

| Variant | protein stability index |
| --- | --- |
| RVRPLARVTSLANLISPKRNGAVR | 2.31 |
| RVRPLARVTSLANLISPERNGAVR | 3.63 |
| RVRPLARVTSLANLISPPRNGAVR | 3.12 |
| RVRPLARVTSLANLISPFRNGAVR | 2.29 |
| RVRPLARVTSLANLISPTRNGAVR | 3.68 |
| RVRPLARVTSLANLISPMRNGAVR | 3.07 |
| RVRPLARVTSLANLISPDRNGAVR | 4.03 |
| RVRPLARVTSLANLISPNRNGAVR | 3.2 |
| RVRPLARVTSLANLISPQRNGAVR | 3.63 |
| RVRPLARVTSLANLISPRRNGAVR | 3.15 |
| RVRPLARVTSLANLISPWRNGAVR | 2.25 |
| RVRPLARVTSLANLISPYRNGAVR | 2.23 |
| RVRPLARVTSLANLISPIRNGAVR | 2.83 |
| RVRPLARVTSLANLISPCRNGAVR | 2.21 |
| RVRPLARVTSLANLISPARNGAVR | 3.03 |
| RVRPLARVTSLANLISPGRNGAVR | 3.49 |
| RVRPLARVTSLANLISPHRNGAVR | 2.75 |
| RVRPLARVTSLANLISPSRNGAVR | 4.17 |
| RVRPLARVTSLANLISPLRNGAVR | 2.94 |
| RVRPLARVTSLANMISPVRNGAVR | 2.61 |
| RVRPLARVTSLANAISPVRNGAVR | 3.15 |
| RVRPLARVTSLANVISPVRNGAVR | 2.72 |
| RVRPLARVTSLANYISPVRNGAVR | 3.17 |
| RVRPLARVTSLANDISPVRNGAVR | 4.39 |

| Variant | protein stability index |
| --- | --- |
| RVRPLARVTSLANSISPVRNGAVR | 3.15 |
| RVRPLARVTSLANTISPVRNGAVR | 3.67 |
| RVRPLARVTSLANGISPVRNGAVR | 3.24 |
| RVRPLARVTSLANCISPVRNGAVR | 1.66 |
| RVRPLARVTSLANPISPVRNGAVR | 3.76 |
| RVRPLARVTSLANFISPVRNGAVR | 2.65 |
| RVRPLARVTSLANNISPVRNGAVR | 3.84 |
| RVRPLARVTSLANQISPVRNGAVR | 3.02 |
| RVRPLARVTSLANKISPVRNGAVR | 3.35 |
| RVRPLARVTSLANWISPVRNGAVR | 4.15 |
| RVRPLARVTSLANEISPVRNGAVR | 3.16 |
| RVRPLARVTSLANHISPVRNGAVR | 3.63 |
| RVRPLARVTSLANRISPVRNGAVR | 3.34 |
| RVRPLARVTSLANIISPVRNGAVR | 3.03 |
| RVRPLARVTSLANLGSPVRNGAVR | 3.6 |
| RVRPLARVTSLANLDSPVRNGAVR | 3.65 |
| RVRPLARVTSLANLKSPVRNGAVR | 3.27 |
| RVRPLARVTSLANLVSPVRNGAVR | 3.39 |
| RVRPLARVTSLANLQSPVRNGAVR | 3.66 |
| RVRPLARVTSLANLNSPVRNGAVR | 3.97 |
| RVRPLARVTSLANLTSPVRNGAVR | 3.5 |
| RVRPLARVTSLANLPSPVRNGAVR | 3.31 |
| RVRPLARVTSLANLRSPVRNGAVR | 3.56 |
| RVRPLARVTSLANLWSPVRNGAVR | 2.47 |

| Variant | protein stability index |
| --- | --- |
| RVRPLARVTSLANLESPVRNGAVR | 4.08 |
| RVRPLARVTSLANLYSPVRNGAVR | 3.27 |
| RVRPLARVTSLANLASPVRNGAVR | 4.27 |
| RVRPLARVTSLANLCSPVRNGAVR | 2.76 |
| RVRPLARVTSLANLMSPVRNGAVR | 3.29 |
| RVRPLARVTSLANLHSPVRNGAVR | 4.02 |
| RVRPLARVTSLANLLSPVRNGAVR | 3.03 |
| RVRPLARVTSLANLSSPVRNGAVR | 3.63 |
| RVRPLARVTSLANLFSPVRNGAVR | 2.76 |
| RVRPLARVTSLTNLISPVRNGAVR | 3.89 |
| RVRPLARVTSLYNLISPVRNGAVR | 2.52 |
| RVRPLARVTSLVNLISPVRNGAVR | 2.89 |
| RVRPLARVTSLRNLISPVRNGAVR | 2.64 |
| RVRPLARVTSLWNLISPVRNGAVR | 1.83 |
| RVRPLARVTSLSNLISPVRNGAVR | 3.49 |
| RVRPLARVTSLANLIAPVRNGAVR | 3.46 |
| RVRPLARVTSLANLIKPVRNGAVR | 2.88 |
| RVRPLARVTSLANLICPVRNGAVR | 1.25 |
| RVRPLARVTSLANLITPVRNGAVR | 3.56 |
| RVRPLARVTSLANLIEPVRNGAVR | 3.15 |
| RVRPLARVTSLANLIPPVRNGAVR | 3.32 |
| RVRPLARVTSLANLIYPVRNGAVR | 2.66 |
| RVRPLARVTSLANLIQPVRNGAVR | 3.76 |
| RVRPLARVTSLANLIRPVRNGAVR | 3.03 |

| Variant | protein stability index |
| --- | --- |
| RVRPLARVTSLANLIMPVRNGAVR | 2.31 |
| RVRPLARVTSLANLIVPVRNGAVR | 2.99 |
| RVRPLARVTSLANLIWPVRNGAVR | 2.55 |
| RVRPLARVTSLANLIFPVRNGAVR | 2.21 |
| RVRPLARVTSLANLILPVRNGAVR | 2.49 |
| RVRPLARVTSLANLIIPVRNGAVR | 2.44 |
| RVRPLARVTSLANLIGPVRNGAVR | 3.14 |
| RVRPLARVTSLANLIDPVRNGAVR | 2.86 |
| RVRPLARVTSLANLINPVRNGAVR | 3.23 |
| RVRPLARVTSLANLIHPVRNGAVR | 2.83 |
| RVRPLARVTSLANLISPVRNGHVR | 3.03 |
| RVRPLARVTSLANLISPVRNGFVR | 2.4 |
| RVRPLARVTSLANLISPVRNGMVR | 2.25 |
| RVRPLARVTSLANLISPVRNGLVR | 2.62 |
| RVRPLARVTSLANLISPVRNGCVR | 2.92 |
| RVRPLARVTSLANLISPVRNGDVR | 3.35 |
| RVRPLARVTSLANLISPVRNGEVR | 3.52 |
| RVRPLARVTSLANLISPVRNGIVR | 2.76 |
| RVRPLARVTSLANLISPVRNGGVR | 3.18 |
| RVRPLARVTSLANLISPVRNGKVR | 3.36 |
| RVRPLARVTSLANLISPVRNGNVR | 3.02 |
| RVRPLARVTSLANLISPVMNGAVR | 2.53 |
| RVRPLARVTSLANLISPVVNGAVR | 3.6 |
| RVRPLARVTSLANLISPVDNGAVR | 3.76 |

| Variant | protein stability index |
| --- | --- |
| RVRPLARVTSLANLISPVINGAVR | 3.02 |
| RVRPLARVTSLANLISPVPNGAVR | 2.68 |
| RVRPLARVTSLANLISPVSNGAVR | 3.2 |
| RVRPLARVTSLANLISPVFNGAVR | 2.29 |
| RVRPLARVTSLANLISPVCNGAVR | 2.99 |
| RVRPLARVTSLANLISPVKNGAVR | 2.59 |
| RVRPLARVTSLANLISPVNNGAVR | 3.28 |
| RVRPLARVTSLANLISPVYNGAVR | 2.19 |
| RVRPLARVTSLANLISPVHNGAVR | 2.69 |
| RVRPLARVTSLANLISPVQNGAVR | 3.06 |
| RVRPLARVTSLANLISPVWNGAVR | 1.82 |
| RVRPLARVTSLANLISPVLNGAVR | 2.81 |
| RVRPLARVTSLANLISPVTNGAVR | 3.3 |
| RVRPLARVTSLANLISPVANGAVR | 2.96 |
| RVRPLARVTSLANLISPVENGAVR | 3.55 |
| RVRPLARVTSLANLISPVGNGAVR | 3.4 |
| RVRPLARVTSLANLISNVRNGAVR | 2.81 |
| RVRPLARVTSLANLISIVRNGAVR | 2.24 |
| RVRPLARVTSLANLISHVRNGAVR | 2.15 |
| RVRPLARVTSLANLISWVRNGAVR | 1.89 |
| RVRPLARVTSLANLISCVRNGAVR | 3.96 |
| RVRPLARVTSLANLISTVRNGAVR | 2.8 |
| RVRPLARVTSLANLISSVRNGAVR | 3.45 |
| RVRPLARVTSLANLISQVRNGAVR | 2.29 |

| Variant | protein stability index |
| --- | --- |
| RVRPLARVTSLANLISAVRNGAVR | 2.1 |
| RVRPLARVTSLANLISRVRNGAVR | 2.24 |
| RVRPLARVTSLANLISLVRNGAVR | 2.03 |
| RVRPLARVTSLANLISDVRNGAVR | 3.03 |
| RVRPLARVTSLANLISFVRNGAVR | 1.56 |
| RVRPLARVTSLANLISVVRNGAVR | 3.16 |
| RVRPLARVTSLANLISMVRNGAVR | 2.17 |
| RVRPLARVTSLANLISEVRNGAVR | 2.4 |
| RVRPLARVTSLANLISYVRNGAVR | 2.07 |
| RVRPLARVTSLANLISKVRNGAVR | 3.09 |
| RVRPLARVTSLANLISGVRNGAVR | 2.14 |
| RVRPLARVTSLANLISPVRVGAVR | 2.64 |
| RVRPLARVTSLANLISPVRKGAVR | 2.49 |
| RVRPLARVTSLANLISPVRGGAVR | 2.96 |
| RVRPLARVTSLANLISPVRWGAVR | 2.33 |
| RVRPLARVTSLANLISPVRSGAVR | 2.74 |
| RVRPLARVTSLANLISPVRPGAVR | 2.94 |
| RVRPLARVTSLANLISPVRFGAVR | 2.26 |
| RVRPLARVTSLANLISPVRMGAVR | 2.54 |
| RVRPLARVTSLANLISPVRQGAVR | 3.75 |
| RVRPLARVTSLANLISPVREGAVR | 3.33 |
| RVRPLARVTSLANLISPVRTGAVR | 2.79 |
| RVRPLARVTSLANLISPVRLGAVR | 3.29 |
| RVRPLARVTSLANLISPVRCGAVR | 2.72 |

| Variant | protein stability index |
| --- | --- |
| RVRPLARVTSLANLISPVRAGAVR | 2.91 |
| RVRPLARVTSLANLISPVRIGAVR | 2.66 |
| RVRPLARVTSLANLISPVRRGAVR | 2.57 |
| RVRPLARVTSLANLISPVRDGAVR | 3.2 |
| RVRPLARVTSLANLISPVRHGAVR | 3.3 |
| RVRPLARVTSLANLISPVRYGAVR | 2.52 |
| RVRPLARVTSLANLISPVRNMAVR | 2.69 |
| RVRPLARVTSLANLISPVRNFAVR | 2.42 |
| RVRPLARVTSLANLISPVRNPAVR | 3.52 |
| RVRPLARVTSLANLISPVRNNAVR | 2.88 |
| RVRPLARVTSLANLISPVRNRAVR | 2.42 |
| RVRPLARVTSLANLISPVRNVAVR | 2.69 |
| RVRPLARVTSLANLISPVRNWAVR | 2.31 |
| RVRPLARVTSLANLISPVRNIAVR | 2.87 |
| RVRPLARVTSLANLISPVRNLAVR | 2.68 |
| RVRPLARVTSLANLISPVRNEAVR | 3.08 |
| RVRPLARVTSLANLISPVRNSAVR | 3.56 |
| RVRPLARVTSLANLISPVRNDAVR | 2.55 |
| RVRPLARVTSLANLISPVRNTAVR | 3.35 |
| RVRPLARVTSLANLISPVRNCAVR | 2.75 |
| RVRPLARVTSLANLISPVRNKAVR | 2.71 |
| RVRPLARVTSLANLISPVRNQAVR | 3.12 |
| RVRPLARVTSLANLISPVRNAAVR | 3.62 |
| RVRPLARVTSLANLISPVRNHAVR | 2.85 |

| Variant | protein stability index |
| --- | --- |
| RVRPLARVTSLANLISPVRNYAVR | 2.82 |
| RVRPLARVTSLASLISPVRNGAVR | 2.65 |
| RVRPLARVTSLAALISPVRNGAVR | 2.75 |
| RVRPLARVTSLAYLISPVRNGAVR | 1.38 |
| RVRPLARVTSLAQLISPVRNGAVR | 2.52 |
| RVRPLARVTSLATLISPVRNGAVR | 3.11 |
| RVRPLARVTSLAELISPVRNGAVR | 3.22 |
| RVRPLARVTSLAILISPVRNGAVR | 2.34 |
| RVRPLARVTSLADLISPVRNGAVR | 3.43 |
| RVRPLARVTSLALLISPVRNGAVR | 1.98 |
| RVRPLARVTSLAMLISPVRNGAVR | 1.92 |
| RVRPLARVTSLAFLISPVRNGAVR | 2.6 |
| RVRPLARVTSLAPLISPVRNGAVR | 3.65 |
| RVRPLARVTSLAKLISPVRNGAVR | 2.84 |
| RVRPLARVTSLACLISPVRNGAVR | 1.93 |
| RVRPLARVTSLAHLISPVRNGAVR | 2.66 |
| RVRPLARVTSLAVLISPVRNGAVR | 2.33 |
| RVRPLARVTSLARLISPVRNGAVR | 3.33 |
| RVRPLARVTSLAGLISPVRNGAVR | 3.05 |
| RVRPLARVTSLAWLISPVRNGAVR | 1.72 |
